# In patent publication US20230357447A1 (JANUX THERAPEUTICS, published 2023):
# Experiments:
# [1] = target: T1, anti-CD28 scFv (VH-linker 1-VL) (biotinylated (site not stated)); assay: phage ELISA; scFv wells pre-incubated with soluble CD28 (competitor);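 note: crude clonal phage supernatants added to wells pretreated with soluble CD28 in blocking buffer, bound phage read via HRP-linked anti-M13 antibody, reference wells got blocking buffer only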
# T1 construct: Captured as biotinylated scFv on neutravidin coated plates in the phage ELISA
# T1 sequence (scFv, as listed by the source): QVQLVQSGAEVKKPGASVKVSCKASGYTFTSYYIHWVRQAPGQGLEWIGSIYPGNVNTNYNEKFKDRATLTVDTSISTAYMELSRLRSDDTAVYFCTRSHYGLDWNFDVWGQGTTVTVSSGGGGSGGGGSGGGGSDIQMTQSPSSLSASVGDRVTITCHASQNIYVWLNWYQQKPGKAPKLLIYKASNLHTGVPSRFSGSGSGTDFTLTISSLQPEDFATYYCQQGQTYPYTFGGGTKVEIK
# [2] = target: T1, anti-CD28 scFv (VH-linker 1-VL); assay: phage ELISA; biotinylated scFv on neutravidin plate; anti-M13-HRP;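 note: crude clonal phage supernatant added to wells pre-incubated with soluble CD28 protein or only blocking buffer, then washed, bound phage read out with an HRP-linked anti-M13 antibody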
# Description: Clonal phage were harvested as crude supernatants and screened via standard enzyme linked immunosorbent assays (ELISAs). […] Prior to the addition of clonal phage, wells were incubated with blocking buffer and CD28 soluble protein or blocking buffer alone. Without washing or aspirating, clonal phage supernatants were then added to the wells and incubated for a short time. Wells were then washed followed by detection of bound phage using a horse radish peroxidase conjugated anti-M13 antibody.
Binder,CD28 scFv signal in presence of CD28 [1],CD28 scFv signal [2]
MDWCPRFMWAECFN (on phage (pIII fusion)) [Phage-247 clonal phage peptide],0.341,2.6
MDWCPKHLWTECFA (on phage (pIII fusion)) [Phage-242 clonal phage peptide],0.145,2.49
MDWCPRHLWHECYS (on phage (pIII fusion)) [Phage-241 clonal phage peptide],0.374,2.58
VPWCQIISGLECLT (on phage (pIII fusion)) [Phage-229 clonal phage peptide],0.077,0.174
APWCQIISGLECLT (on phage (pIII fusion)) [Phage-230 clonal phage peptide],0.078,0.169
MDWCPRHLWFECFN (on phage (pIII fusion)) [Phage-293 clonal phage peptide],0.171,2.49
MDWCPRHLWNECFA (on phage (pIII fusion)) [Phage-306 clonal phage peptide],0.17,2.39
MDWCPRHLWNECFN (on phage (pIII fusion)) [Phage-283 clonal phage peptide],0.393,2.65
MDWCPRHLWYECFN (on phage (pIII fusion)) [Phage-243 clonal phage peptide],0.167,2.41
MDWCPRALWFECFF (on phage (pIII fusion)) [Phage-234 clonal phage peptide],0.331,2.67
MDWCPRHLWFECFF (on phage (pIII fusion)) [Phage-300 clonal phage peptide],0.479,2.45
MDWCPIHLWNECFN (on phage (pIII fusion)) [Phage-314 clonal phage peptide],0.157,2.35
MDWCPRDRWIDCFN (on phage (pIII fusion)) [Phage-226 clonal phage peptide],0.131,0.339
MDWCPRDRWSDCFN (on phage (pIII fusion)) [Phage-227 clonal phage peptide],0.074,0.102
MTWCPTSFWNRCLD (on phage (pIII fusion)) [Phage-233 clonal phage peptide],0.405,0.392
MDWCPPYLWSECFA (on phage (pIII fusion)) [Phage-238 clonal phage peptide],0.234,2.6
MDWCPRYLWSECFA (on phage (pIII fusion)) [Phage-254 clonal phage peptide],0.513,2.71
MDWCPRNLWHACFN (on phage (pIII fusion)) [Phage-259 clonal phage peptide],0.112,1.57
MDWCPRHMWINCFA (on phage (pIII fusion)) [Phage-252 clonal phage peptide],0.165,0.92

Binder,CD28 scFv signal in presence of CD28 [1],CD28 scFv signal [2]
ITWCHVISGLECWN (on phage (pIII fusion)) [Phage-228 clonal phage peptide],0.1,0.193
MDWCPKDRWNDCYF (on phage (pIII fusion)) [Phage-224 clonal phage peptide],,1.09
MDWCPRNMWHHCFD (on phage (pIII fusion)) [Phage-248 clonal phage peptide],0.524,1.6
VPWCLIISGLDCLN (on phage (pIII fusion)) [Phage-231 clonal phage peptide],0.09,0.107
MDWCPWDMWDKCFN (on phage (pIII fusion)) [Phage-217 clonal phage peptide],0.108,0.586
MDWCPSDMWAHCYN (on phage (pIII fusion)) [Phage-249 clonal phage peptide],0.109,1.21
MDWCPFDLWHVCYN (on phage (pIII fusion)) [Phage-256 clonal phage peptide],0.651,2.6
MDWCARFVGYGCLD (on phage (pIII fusion)) [Phage-232 clonal phage peptide],0.074,0.065
FDFCPTTMWTYCQH (on phage (pIII fusion)) [Phage-220 clonal phage peptide],0.081,0.086
TTWCPTSMWLHCFD (on phage (pIII fusion)) [Phage-221 clonal phage peptide],0.072,0.074
MDWCPKVMWHYCFA (on phage (pIII fusion)) [Phage-250 clonal phage peptide],0.252,1.14
MDWCPRFMWSECFS (on phage (pIII fusion)) [Phage-251 clonal phage peptide],0.137,1.01
MVGCATSMWNRCLT (on phage (pIII fusion)) [Phage-253 clonal phage peptide],0.746,0.77
MDWCPRDQWHNCFN (on phage (pIII fusion)) [Phage-222 clonal phage peptide],0.078,0.2
MDWCPRNLWHLCFA (on phage (pIII fusion)) [Phage-245 clonal phage peptide],0.164,1.4
NYWCPSSMWNRCLH (on phage (pIII fusion)) [Phage-219 clonal phage peptide],0.088,0.158
MDWCPRDRWVDCFF (on phage (pIII fusion)) [Phage-223 clonal phage peptide],0.14,1.58
MDWCPRDRWADCFF (on phage (pIII fusion)) [Phage-225 clonal phage peptide],0.089,0.392
MDWCPKHLWNKCFN (on phage (pIII fusion)) [Phage-246 clonal phage peptide],0.092,1.16

Binder,CD28 scFv signal in presence of CD28 [1],CD28 scFv signal [2]
MDWCPRYLWHVCFN (on phage (pIII fusion)) [Phage-239 clonal phage peptide],0.409,2.6
MDWCPRYLWHVCFD (on phage (pIII fusion)) [Phage-302 clonal phage peptide],0.31,2.44
MDWCPRDLWTECFS (on phage (pIII fusion)) [Phage-305 clonal phage peptide],0.174,2.4
MDWCPRTLWHVCFN (on phage (pIII fusion)) [Phage-240 clonal phage peptide],0.551,2.6
MDWCPRYLWHECFS (on phage (pIII fusion)) [Phage-235 clonal phage peptide],0.303,2.65
MDWCPRSLWHVCFN (on phage (pIII fusion)) [Phage-258 clonal phage peptide],0.238,2.41
MDWCPSYLWHECFF (on phage (pIII fusion)) [Phage-237 clonal phage peptide],0.447,2.61
MDWCPRYLWHECFD (on phage (pIII fusion)) [Phage-244 clonal phage peptide],0.177,2.07
MDWCPRHLWSVCFN (on phage (pIII fusion)) [Phage-255 clonal phage peptide],0.825,2.65
MDWCPRYLWHVCFY (on phage (pIII fusion)) [Phage-291 clonal phage peptide],1.14,2.5
MDWCPRYLWTECFS (on phage (pIII fusion)) [Phage-303 clonal phage peptide],0.329,2.42
MDWCPRHLWHVCFN (on phage (pIII fusion)) [Phage-264 clonal phage peptide],0.636,2.67
MDWCPRYLWHECFF (on phage (pIII fusion)) [Phage-301 clonal phage peptide],0.682,2.45
MDWCPMFLWHECFN (on phage (pIII fusion)) [Phage-309 clonal phage peptide],0.591,2.38
MDWCPMFLWDECFN (on phage (pIII fusion)) [Phage-318 clonal phage peptide],0.203,2.29
MDWCPRFLWHECFN (on phage (pIII fusion)) [Phage-257 clonal phage peptide],0.351,2.59
MDWCPMFMWHECFN (on phage (pIII fusion)) [Phage-261 clonal phage peptide],1.04,2.23
TFGCPTTMWNRCFA (on phage (pIII fusion)) [Phage-218 clonal phage peptide],0.068,0.181
